# Patent publication US20250074957A1 (GENERAL HOSPITAL, published 2025)
# B1: CRBN-Nanoluciferase (NLuc) (other, not shown: large carriers)
# chain: MAGEGDQQDAAHNMGNHLPLLPAESEEEDEMEVEDQDSKEAKKPNIINFDTSLPTSHTYLGADMEEFHGRTLHDDDSCQVIPVLPQVMMILIPGQTLPLQLFHPQEVSMVRNLIQKDRTFAVLAYSNVQEREAQFGTTAEIYAYREEQDFGIEIVKVKAIGRQRFKVLELRTQSDGIQQAKVQILPECVLPSTMSAVQLESLNKCQIFPSKPVSREDQCSYKWWQKYQKRKFHCANLTSWPRWLYSLYDAETLMDRIKKQLREWDENLKDDSLPSNPIDFSYRVAACLPIDDVLRIQLLKIGSAIQRLRCELDIMNKCTSLCCKQCQETEITTKNEIFSLSLCGPMAAYVNPHGYVHETLTVYKACNLNLIGRPSTEHSWFPGYAWTVAQCKICASHIGWKFTATKKDMSPQKFWGLTRSALLPTIPDTEDEISPDKVILCL
# notes: Expressed inside transfected 293T cells for NanoBRET (intracellular, not on the surface); also called wild-type CRBN; wtCRBN
# Tests used:
# [1] = target: IKZF3 degron-eGFP fusion (IKZF3 degron-GFP-IRES-mCherry reporter) (Homo sapiens, UniProt A2VDW9 130-189 (bovine entry)); assay: cell-based or functional assay
# CD28-IKZF3 (eGFP fusion) = assay: cell-based or functional assay
# [2] = target: CD28-CD3z-IKZF3 (eGFP fusion); assay: cell-based or functional assay
# IKZF3aa130-189-HaloTag = target: T1, IKZF3aa130-189-HaloTag (Homo sapiens, UniProt A2VDW9 130-189 (bovine entry)); assay: NanoBRET in 293T-CRBNΔe5 cells, pomalidomide dose-response; the Kd is a pomalidomide concentration
# T1 construct: Expressed in transfected 293T cells for NanoBRET; labelled with HaloTag NanoBRET 618 ligand; also called IKZF3 degron; degron
# Method: (§1) Cells were then trypsinized and seeded into 96 well plates, at 40,000 cells per well. The BRET assay was performed per manufacturer's instructions (Promega™). In brief, cells were incubated for 2 hours with varying concentrations of Pomalidomide or DMSO, 10 μM MG132, and 100 nM HaloTag NanoBRET 618 Ligand. NanoBRET Nano-Glo substrate was added and donor (460 nm) and acceptor (618 nm) emission were measured within 10 minutes (EnVision, Perkin Elmer). Mean corrected milliBRET units (mBU) was calculated.
# [3] = target: B1; assay: NanoBRET across a range of pomalidomide concentrations
# Method: as §1
# T1 sequence (A2VDW9 130-189): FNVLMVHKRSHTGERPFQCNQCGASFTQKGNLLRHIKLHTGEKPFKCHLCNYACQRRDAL
# IKZF3 degron-eGFP fusion (IKZF3 degron-GFP-IRES-mCherry reporter), sequence (A2VDW9 130-189): as above
binder,measurement,setting,value
CRBN (wild-type; endogenous in Jurkat/293T cells or re-expressed in 293T-CRBNΔe5 cells) (other) MAGEGDQQDAAHNMGNHLPLLPAESEEEDEMEVEDQDSKEAKKPNIINFDTSLPTSHTYLGADMEEFHGRTLHDDDSCQVIPVLPQVMMILIPGQTLPLQLFHPQEVSMVRNLIQKDRTFAVLAYSNVQEREAQFGTTAEIYAYREEQDFGIEIVKVKAIGRQRFKVLELRTQSDGIQQAKVQILPECVLPSTMSAVQLESLNKCQIFPSKPVSREDQCSYKWWQKYQKRKFHCANLTSWPRWLYSLYDAETLMDRIKKQLREWDENLKDDSLPSNPIDFSYRVAACLPIDDVLRIQLLKIGSAIQRLRCELDIMNKCTSLCCKQCQETEITTKNEIFSLSLCGPMAAYVNPHGYVHETLTVYKACNLNLIGRPSTEHSWFPGYAWTVAQCKICASHIGWKFTATKKDMSPQKFWGLTRSALLPTIPDTEDEISPDKVILCL,"EC50 of pomalidomide-dependent degradation (eGFP/mCherry ratio normalized to DMSO), Jurkat T cells",[1],0.42 nM
same,"EC50 of pomalidomide-dependent degradation (eGFP/mCherry ratio normalized to DMSO), Jurkat T cells",CD28-IKZF3 (eGFP fusion),23.5 nM
same,"EC50 of pomalidomide-dependent degradation (eGFP/mCherry ratio normalized to DMSO), Jurkat T cells",[2],8.2 nM
B1,apparent Kd (pomalidomide-dependent dimerization),IKZF3aa130-189-HaloTag,30 nM
"IKZF3 degron polypeptide, amino acids 130-189 A153M (HaloTag fusion for BRET) (other, not shown: large carriers, also called IKZF3 A153M; A153M-substituted form of the IKZF3 degron) not shown",binding result,[3],binds
"minCRBN3-NLuc (other, not shown: large carriers, also called CRBNΔ3; cytosolic (untethered) minCRBN) AGEGDQQDAAHNMGNHLPLLPESEEEDEMEVEDQDSKEAKKPNIINFDTSLPTSHTYLGADMEEFHGRTLHDDDSCQVIPVLPQVMMILIPGQTLPLQLFHPQEVSMVRNLIQKDRTFAVLAYSNVQEREAQFGTTAEIYAYREEQDFGIEIVKVKAIGRQRFKVLELRTQSDGIQQAKVQILPECVLPSTYDAETLMDRIKKQLREWDENLKDDSLPSNPIDFSYRVAACLPIDDVLRIQLLKIGSAIQRLRCELDIMNKCTSLCCKQCQETEITTKNEIFSLSLCGPMAAYVNPHGYVHETLTVYKACNLNLIGRPSTEHSWFPGYAWTVAQCKICASHIGWKFTATKKDMSPQKFWGLTRSALLPTIPDTEDEISPDKVILCL",apparent Kd (pomalidomide-dependent dimerization),IKZF3aa130-189-HaloTag,30 nM
